Key:
[1] = target: Pyst1 fused to enhanced yellow fluorescent protein (EYFP-Pyst1) (UniProt Q16828); assay: FRET or BRET
[2] = target: ORF3 protein fused to enhanced cyan fluorescent protein (ECFP-ORF3) (hepatitis E virus); assay: FRET or BRET

Chain of UniProt Q16828 (Q16828 whole entry, the tested form may be a part): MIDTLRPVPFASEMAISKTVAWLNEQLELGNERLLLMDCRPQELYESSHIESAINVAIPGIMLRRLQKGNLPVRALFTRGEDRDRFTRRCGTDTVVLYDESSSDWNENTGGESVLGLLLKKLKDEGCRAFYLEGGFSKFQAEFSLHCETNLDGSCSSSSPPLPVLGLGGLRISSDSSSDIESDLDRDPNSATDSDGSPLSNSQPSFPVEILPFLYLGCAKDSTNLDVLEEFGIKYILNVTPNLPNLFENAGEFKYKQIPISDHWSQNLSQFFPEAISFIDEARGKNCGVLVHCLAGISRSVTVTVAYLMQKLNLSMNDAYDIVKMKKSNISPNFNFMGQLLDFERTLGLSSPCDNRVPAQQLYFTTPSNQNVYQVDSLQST

ORF3 protein fused to enhanced cyan fluorescent protein (ECFP-ORF3) (natural protein)
percent FRET efficiency (region of colocalization) [1]: 27.8%
percent FRET efficiency (region of colocalization) [2]: 26.4%

From publication PMC2441640
